This note sets out measurements from PMC4786781.

This data set deals with T1, Spo0J R82A (Bacillus subtilis, UniProt P26497 1-282, R82A).
T1 sequence: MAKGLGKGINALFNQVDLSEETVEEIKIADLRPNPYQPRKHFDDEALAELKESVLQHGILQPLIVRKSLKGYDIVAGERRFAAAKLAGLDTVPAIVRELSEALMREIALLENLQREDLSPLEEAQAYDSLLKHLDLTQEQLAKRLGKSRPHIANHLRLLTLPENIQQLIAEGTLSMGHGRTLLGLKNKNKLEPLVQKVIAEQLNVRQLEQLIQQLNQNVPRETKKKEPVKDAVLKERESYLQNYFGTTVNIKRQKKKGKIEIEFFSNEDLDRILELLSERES
Put plainly: white light interferometry (BLItz), Hill fit (n=1.9±0.5); 150 mM NaCl, 0.02% Tween-20; apparent Kd; PIFE: 20 mM Tris pH 7.5, 100 ug/ml BSA, 100 mM NaCl (150 mM for Spo0J R82A Kd), flow 100 ul/min; BLItz: 20 mM Tris pH 7.5, 150 mM NaCl, 100 ug/ml BSA, 0.02% Twe.

B1: 39-bp scrambled parS duplex (oTG044F/oTG043R) (dsDNA)
DNA 1: CAGTTGAATCTGACAAATGACTAACAATGAGAGCAAAAA
DNA 2: TTTTTGCTCTCATTGTTAGTCATTTGTCAGATTCAACTG
Regarding B1, the Kd worked out at 131 ± 24.3 nM.
